The series deals with the molecule itself. In words: SEC.

B1: thiostrepton resistance methyltransferase Tsr (wild type) (enzyme)
chain: MTELDTIANPSDPAVQRIIDVTKPSRSNIKTTLIEDVEPLMHSIAAGVEFIEVYGSDSSPFPSELLDLCGRQNIPVRLIDSSIVNQLFKGERKAKTFGIARVPRPARFGDIASRRGDVVVLDGVKIVGNIGAIVRTSLALGASGIILVDSDITSIADRRLQRASRGYVFSLPVVLSGREEAIAFIRDSGMQLMTLKADGDISVKELGDNPDRLALLFGSEKGGPSDLFEEASSASVSIPMMSQTESLNVSVSLGIALHERIDRNLAANR
By stoichiometry N is commonly meant the number of molecules, sites or subunits per partner or assembly. Take B1: the “stoichiometry N” value was 2.

B2: Tsr N129A mutant (enzyme, S. cyaneus, UniProt P18644 1-269, looked up)
chain: MTELDTIANPSDPAVQRIIDVTKPSRSNIKTTLIEDVEPLMHSIAAGVEFIEVYGSDSSPFPSELLDLCGRQNIPVRLIDSSIVNQLFKGERKAKTFGIARVPRPARFGDIASRRGDVVVLDGVKIVGAIGAIVRTSLALGASGIILVDSDITSIADRRLQRASRGYVFSLPVVLSGREEAIAFIRDSGMQLMTLKADGDISVKELGDNPDRLALLFGSEKGGPSDLFEEASSASVSIPMMSQTESLNVSVSLGIALHERIDRNLAANR
Take B2: the “stoichiometry N” value turned out to be 2.

The values are drawn from PMC4661090 (FEBS letters, 2015).
